According to PMC2728795 (Biochemistry, 2009):
Numbering of substitutions follows the chain as printed. Numbers in names are those of the source.

B1: GST(541–605)PRG (domain or fragment)
chain: GKPKSSSQSTFHIPLSPVEVKPGNVRNIIQHFENNQQYDAPEPGTQRLSTGSFPEDLLESDSSRS
B2: GST(541–605, I569A)PRG (domain or fragment)
chain: B1 chain with I29A
B3: GST(541–605, E573A)PRG (domain or fragment)
chain: B1 chain with E33A
B4: GST(541–605, F572A)PRG (domain or fragment)
chain: B1 chain with F32A
B5: GST(541–605, I568A)PRG (domain or fragment)
chain: B1 chain with I28A

biological target: F-actin (freshly polymerized actin) (UniProt P68135 1-377); test: co-sedimentation

percent bound at 5 µM F-actin [%]	Binder
~75	B1
~25	B2
~25	B3
~25	B4
~25	B5
